Results as given in publication PMC11904782, “Armadillo domain of ARID1A directly interacts with DNA-PKcs to couple chromatin remodeling with nonhomologous end joining (NHEJ) pathway” (Nucleic Acids Research, 2025).

B1: His–ARID1A–ARM domain (1914–2285 aa) (domain or fragment, UniProt O14497 1914-2285, looked up)
chain: MLSTRSSTLTEDGAKSSEAIKESSKFPFGISPAQSHRNIKILEDEPHSKDETPLCTLLDWQDSLAKRCVCVSNTIRSLSFVPGNDFEMSKHPGLLLILGKLILLHHKHPERKQAPLTYEKEEEQDQGVSCNKVEWWWDCLEMLRENTLVTLANISGQLDLSPYPESICLPVLDGLLHWAVCPSAEAQDPFSTLGPNAVLSPQRLVLETLSKLSIQDNNVDLILATPPFSRLEKLYSTMVRFLSDRKNPVCREMAVVLLANLAQGDSLAARAIAVQKGSIGNLLGFLEDSLAATQFQQSQASLLHMQNPPFEPTSVDMMRRAARALLALAKVDENHSEFTLYESRLLDISVSPLMNSLVSQVICDVLFLIGQS
notes: ARID1A residues 1914-2285 (ARM domain); Limits are printed for the BLI ligand; also called His-tagged ARM domain of ARID1A

Legend:
Details in all cases: both partners purified
[1] = target: B1; assay: far-Western, overlay or dot blot; GST-fusion proteins separated by SDS–PAGE, transferred to PVDF, renatured through falling guanidine–HCl, incubated with His–ARID1A–ARM overnight at 4°C, probed with anti-His-tag antibody
[2] = target: B1; assay: BLI; Octet Red K2; His–ARID1A–ARM domain immobilised on NTA biosensors; GST recombinant proteins as analytes in serial dilutions
GST-DNTT: aa 1–509 = target: T1, GST-DNTT: aa 1–509 (UniProt P04053 1-509); assay: far-Western, overlay or dot blot; GST-fusion proteins separated by SDS–PAGE, transferred to PVDF, renatured through falling guanidine–HCl, incubated with His–ARID1A–ARM overnight at 4°C, probed with anti-His-tag antibody
T1 construct: DNA nucleotidylexotransferase (DNTT) residues 1-509; also called DNA nucleotidylexotransferase
T1 sequence (P04053 whole entry, the tested form may be a part): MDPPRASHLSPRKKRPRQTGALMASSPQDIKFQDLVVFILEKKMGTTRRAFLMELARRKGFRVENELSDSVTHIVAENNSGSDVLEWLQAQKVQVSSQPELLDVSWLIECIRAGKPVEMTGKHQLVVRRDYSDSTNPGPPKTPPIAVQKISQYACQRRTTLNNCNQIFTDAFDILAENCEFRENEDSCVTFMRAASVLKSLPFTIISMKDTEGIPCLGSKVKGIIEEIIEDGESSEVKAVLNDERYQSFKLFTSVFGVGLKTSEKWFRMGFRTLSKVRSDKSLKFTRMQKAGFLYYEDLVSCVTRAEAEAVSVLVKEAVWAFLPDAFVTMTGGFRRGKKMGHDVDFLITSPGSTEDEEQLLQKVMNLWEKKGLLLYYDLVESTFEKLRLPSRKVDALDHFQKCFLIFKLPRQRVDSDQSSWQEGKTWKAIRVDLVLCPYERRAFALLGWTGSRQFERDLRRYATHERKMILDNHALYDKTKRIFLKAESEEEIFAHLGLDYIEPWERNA

binding result [1] | binding result [2] | Binder | other results
binds | – | AALGDPKAPGLGAFRRKFIQTFGKEFDKHFGKGGSKLLRMKLSDFN (domain or fragment, UniProt P78527 3615-3660, looked up, DNA-PKcs residues 3615-3660, printed as 45 amino acids) [GST–DNA–PKcs ARID1A-binding region (3615–3660 aa), wild type] | –
– | binds | GST-POLB (7–53 aa) (domain or fragment, DNA polymerase beta residues 7-53; Printed as GAT-POLB in the methods; also called GAT-POLB (7–53 aa); recombinant POLB) not shown | –
binds | – | GST-EZH2-C: aa 598–746 (domain or fragment, enhancer of zeste 2 PRC2 subunit 2 (EZH2) residues 598-746) not shown | –
– | binds | wild-type GST–DNA–PKcs (3552–3691 aa) (domain or fragment, UniProt P78527 3552-3691, looked up, DNA-PKcs residues 3552-3691; also called recombinant wild-type DNA-PKcs; longer amino acid region (3552–3691 aa)) KEFVARIKSKLDQGGVIQDFINALDQLSNPELLFKDWSNDVRAELAKTPVNKKNIEKMYERMYAALGDPKAPGLGAFRRKFIQTFGKEFDKHFGKGGSKLLRMKLSDFNDITNMLLLKMNKDSKPPGNLKECSPWMSDFK | –
– | – | B1 | binding result (GST-DNTT: aa 1–509): binds
